{"source": "paper PMC11651597", "about": "“Characterization of a novel subfamily 1.4 lipase from Bacillus licheniformis IBRL-CHS2: Cloning and expression optimization” (PLOS ONE, 2024)", "substrate": "CCCCCCCCCCCC(=O)Oc1ccc([N+](=O)[O-])cc1", "assay": "purified protein", "format": "biochemical, Bacillus licheniformis", "details": "0.1-1 mM substrate, standard assay pH 7 phosphate buffer, 35 °C, 0.01% Triton X-100, 0.1% polyvinyl alcohol, DMSO", "data": [{"protein": "MLipA (mature LipA lipase of B. licheniformis IBRL-CHS2) (Bacillus licheniformis DSM 13 = ATCC 14580) (protein, signal peptide (residues 1-30) removed; E. coli BL21 (DE3); IMAC purified) ASHNPVVMVHGIGGADYNFIGIKSYLQSQGWTSSELYAINFIDKTGNNINNAPRLSEYIKRVLNQTGASKVDIVAHSMGGANTLYYIKNLDGADKVGHVVTLGGANRLVTNTAPQNDKISYTSIYSTSDYIVLNSLSKLDGANNVQISGVSHVGLLFSSKVNALIKDGLTASGK", "values": [{"measurement": "Km", "value": 360, "unit": "µM"}]}]}
